Assay results as given in the supplement of paper PMC9170038.

System: MS2 coat protein
Experiment: apparent KD of MS2 coat protein; designed switch direction (-1 OFF switch, 1 ON switch): -1; higher = weaker reporter binding
How it was run: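 The buffer was Tris-HCl pH 7.5 with KCl, MgCl2, BSA, DTT, tRNA and Tween-20. In it, SNAP-549-labelled MS2 coat protein was titrated in doubling steps from 0.7 or 1.5 nM to 3 µM over chip-bound RNA switches transcribed by stalled E. coli RNA polymerase on Illumina chips. Apparent KD is the per-design median over clusters of curve fits to normalised fluorescence.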

[1] = Eterna round: R95, input ligand: FMN 200 uM
[2] = Eterna round: R95, input ligand: microRNA oligo, concentration not stated
[3] = Eterna round: R95, input ligand: none
[4] = input ligand: microRNA oligo, concentration not stated

| Sequence | apparent KD of MS2 coat protein [1] [nM] | apparent KD of MS2 coat protein [2] [nM] | apparent KD of MS2 coat protein [3] [nM] | apparent KD of MS2 coat protein (input ligand: FMN 200 uM) [nM] | apparent KD of MS2 coat protein [4] [nM] | apparent KD of MS2 coat protein (input ligand: none) [nM] |
| --- | --- | --- | --- | --- | --- | --- |
| AAUAAUAAGGAGGAUAUCCUAACCGAAAGGUUAGGAGAAGGCCUAACAUGAGGAUCACCCAUGUUCCUCAAUAA [Mat - Exclusion 6 - Eli Mod - D57] (puzzle: Exclusion 6) | 318 | 236 | 118 | – | – | – |
| UUAUUAUAUGUAGGAUAUGCGUAUUAUUGUUAUGCAGAAGGACAUGAGGAUCACCCAUGUAUAUUAUUGUUAUAUAUUAUAUAU [Title] (Eterna round: R96, puzzle: Exclusion NG 1) | – | – | – | 50.2 | 19.3 | 29.3 |
| UAUUAACAGGCAAGAUCCCACAUGAGGAUCACCCAUGUGCUCGUCUUAUAAGGUACUGUGACGAAAGUCACGGUACC [Sensor 3, v1 - 82] (puzzle: Sensor v3, turn-off variant 1) | 23.2 | 589 | 29.4 | – | – | – |
| UAUUAGCAAGCAAGAUCCUACAUGAGGAUCACCCAUGUGCUCGUCUUAAGCUCAGAAUUACUGAGCGCUCGUCUUAU [Winner reversed engineered 23] (Eterna round: R97, puzzle: Sensor, turn-off variant 1) | – | – | – | 468 | – | 645 |
| UCUUUAUUUGUGAGGAUAUCGAUAAAAUGGAUUGUCGAGAAGGCACAUGAGGAUCACCCAUGUGUGGAACAGCA [JR_BMEx4_Sub024] (Eterna round: R97, puzzle: Brourd's mod of Exclusion 4) | – | – | – | 54.8 | – | 18.8 |
| CCGGAAAGGAAGGAUAUGCUAGACGAAAGUCUAGCAGAAGGUCCUACAUGAGGAUCACCCAUGUGGUCCUCCGG [Eli x6 4.06] (Eterna round: R97, puzzle: Exclusion 6) | – | – | – | 298 | – | 1470 |
| AUCAUGCAGUAGGAUAUCGAUCCACAAUAUGAACGAGAAGGGCUGACAUGAGGAUCACCCAUGUGCGUCCGAAG [Becebe] (Eterna round: R97, puzzle: Exclusion 6) | – | – | – | 16.7 | – | 19 |
| AAAUCGGUAGAGGAUAUUGUACAGGAAACGGUGCGAGAAGGCUACACAUGAGGAUCACCCAUGUUAAAUAGCGA [EX6 #55] (Eterna round: R97, puzzle: Exclusion 6) | – | – | – | 17 | – | 15.8 |
| GAGGAGCAAGGAUAUACGAGGAUAUGGUAGGUUGGAGAGUGACAUGAGGAUCACCCAUGUAGAAGGUGCGAGGG [JR_Exclu2_Sub098] (puzzle: Exclusion 2) | – | 55.5 | – | – | – | – |
| UAGUAUCUUCAGGAUAUCAGUGGAAAACACGUAUGAGAAGGGAAGACAUGAGGAUCACCCAUGUAAAGGGUCCG [BotMod 11 - Jieux - Exclusion 6] (Eterna round: R97, puzzle: Exclusion 6) | – | – | – | 579 | – | 203 |
| UUGUUGUAUGUAGGAUAUGCAUAUUAUUGUUAUGCAGAAGGACAUGAGGAUCACCCAUGUAUAUUAUUAUUAUAUGUUAUAUAU [Title] (Eterna round: R96, puzzle: Exclusion NG 1) | – | – | – | 35.1 | 21 | 28 |
| UAAAAGGUAGGAUAUACGAAAAAAAAGGGUAGAAAAAAAACACAUGAGGAUCACCCAUGUAGAAGGACCAAAAA [salish99_ex2_r3_049] (puzzle: Exclusion 2) | 137 | 38.4 | 38 | – | – | – |
| GUCAGCUCGUCAGGAUAUACAUGAGGAUCACCCAUGUGAUCAAUAGCAGCUUCGGCUGCAUACAUGUAGAAGGGACGAGCUGAU [ENG2/6-B2] (Eterna round: R96, puzzle: Exclusion NG 2) | – | – | – | 195 | 15.3 | 160 |
| GAGUUAACAUGAGGAAUAUACAUGAGGAUCACCCAUGUUAACAAAUUUUUUGCUCGUCUUAUAACAACAAUUAACUC [Alarm 4 - Jieux - Sensor, turn-off variant 1] (Eterna round: R97, puzzle: Sensor, turn-off variant 1) | – | – | – | 434 | – | 206 |
| UCAUGUUUAGAGGAUAUGAUUACUCUAGAGUGAUCAGAAGGCUAGACAUGAGGAUCACCCAUGUCAGAACAUGU [Exclusion 6 - B - 17:a] (puzzle: Exclusion 6) | – | 24.5 | – | – | – | – |
| AGUGACUUAGGAUAUUGGCAUGAAGACAUGAGGAUCACCCAUGUCCUCGUAGUCAUUCGCCGAGAAGGGAGAGAUU [Eternabot (L2) Solution 50] (Eterna round: R97, puzzle: Exclusion 5) | – | – | – | 126 | – | 84.4 |
| GGCAUGCAAGGAUAUACUUGAAGUGAUGUUCGAUAAAGUCUACUUGAGGAUCACCCAAGUAGAAGGUGCAUGCC [Exclusion 2 (Mod5.1 JL EX2 4.74 Vienna UCT mod of Mamaed)] (Eterna round: R97, puzzle: Exclusion 2) | – | – | – | 108 | – | 198 |

| Sequence | apparent KD of MS2 coat protein [1] [nM] | apparent KD of MS2 coat protein [2] [nM] | apparent KD of MS2 coat protein [3] [nM] | apparent KD of MS2 coat protein (input ligand: FMN 200 uM) [nM] | apparent KD of MS2 coat protein [4] [nM] | apparent KD of MS2 coat protein (input ligand: none) [nM] |
| --- | --- | --- | --- | --- | --- | --- |
| AUUUAGAGAGGAUAUAUAAAGUGAAACAUGAGGAUCACCCAUGUAAUUUUAUGGAUGUAAAUAGAAGGCUCAUUUU [Mat - Exclusion 5 - JL mod - D3] (puzzle: Exclusion 5) | – | 36.5 | – | – | – | – |
| GACCAGGUAGGAUAUGCAGGGUCGGACUUGAGGAUCACCCAAGUGGCCAAAGUGCGUCCCGCAGAAGGGCCGAAAA [Isisusge] (Eterna round: R97, puzzle: Exclusion 5) | – | – | – | 215 | – | 1230 |
| GGCAAUAACGAGGAUAUCGUAUGGGAAACCAUACGAGAAGGUGUAACAUGAGGAUCACCCAUGUUCCUCAAGCC [Mat - Exclusion 6 - Eli Mod - D66] (puzzle: Exclusion 6) | 35.3 | 34.6 | 40 | – | – | – |
| GCCGAUUAAGUGAGGAUAUACCUAUGGAUACAUAGGUAGAAGGUACAUGAGGAUCACCCAUGUUCCUCAACGGC [Fiskers BMX 4 - 9] (puzzle: Brourd's mod of Exclusion 4) | – | 8.93 | – | – | – | – |
| UUUACAAGCUAUUGAUCCCACAUGAGGAUCACCCAUGUUGCUGCCGGUGACGGUAGCAUAACAAUUGCUCGUCUUAU [JL TOV1 3.56] (Eterna round: R97, puzzle: Sensor, turn-off variant 1) | – | – | – | 660 | – | 797 |
| GAGACGAAAGGAUAUACAUGAGGAUCACCCAUGUAUGAAACAUGAGAAGACACCGCUGGUAGAAGGUUUGGAAA [Eternabot (Original) Solution 46] (Eterna round: R97, puzzle: Exclusion 3) | – | – | – | 26.8 | – | 23.2 |
| GUGUAGUCAGGAUAUACAUAGGAAGAUAAUAUAAUAUAAGUACAUGAGGAUCACCCAUGUAGAAGGGACAGUGU [Excluse me!! 9 - Jieux - Exclusion 2] (puzzle: Exclusion 2) | – | 35.6 | – | – | – | – |
| CUGAGUAGUCAGGAUAUGUGGUACAAAAGUACUGCAGAAGGGAUUACAUGAGGAUCACCCAUGUUAUCUUCAUG [Omei Ex6 B19] (Eterna round: R97, puzzle: Exclusion 6) | – | – | – | 368 | – | 144 |
| AGCGAAUAGACAGGAUAUGAGAAUAGAUAGAGCUCAGAAGGGUCACAUGAGGAUCACCCAUGUGAAGUCUUGAGGCUGCGUGGU [Prohibition 18 - Jieux - Exclusion NG 1] (Eterna round: R96, puzzle: Exclusion NG 1) | – | – | – | 13.1 | 13.4 | 16.1 |
| UUUAUGUCAGGAUAUGAGUAGUAGAACAAUAGUACUACUACUCAGAAGGGACAUGAGGAUCACCCAUGUGCCUC [Fiskers Ex 4 Super stable 44 mod 22] (Eterna round: R96, puzzle: Exclusion 4) | – | – | – | 326 | 32.3 | 40.4 |
| AGUAACUCAUGAGGAUAUCACAUGAGGAUCACCCAUGUAUAGCGCGCUAUGCUAGUCCUCGUAUAUGAGAAGGUAUGAUAAAUG [JL ViennaUCT Quve mod 3] (Eterna round: R96, puzzle: Exclusion NG 2) | – | – | – | 22 | 15.7 | 25.7 |
| AAACACUGAGGAUAUGCAUAACAACAAAGCCUCACGUGCCAACAUGAGGAUCACCCAUGUAGAAGGCAGUCCAA [Mod R3 Insanara 16 - Jieux - Exclusion 2] (Eterna round: R97, puzzle: Exclusion 2) | – | – | – | 25 | – | 30 |
| GGUUGGCGAGGAUAUACAUGAGGAUCACCCAUGUGAGAGAAGAAAGUGAGAACGAAAAGUAGAAGGCGCUGACG [salish99_ex3_r3_060] (puzzle: Exclusion 3) | 2.08 | 43.8 | 90.2 | – | – | – |
| AAGGGUGCCUUUAGAACGACAUGAGGAUCACCCAUGUAGACUGAGGAUAUCUACUCCUAAGGACCGGAGAAGGCAGUGUAAUGC [Ex NG3 #63] (Eterna round: R96, puzzle: Exclusion NG 3) | – | – | – | 72.1 | 41.4 | 58.9 |
| AUUUAGUGAGGAUAUGGUAACGUUUACAUGAGGAUCACCCAUGUUUCAUGGGACUAGAGACUAGAAGGCACUAACG [JR_Ex5_Sub029] (Eterna round: R97, puzzle: Exclusion 5) | – | – | – | 291 | – | 306 |
| UUUUGGCAAGCGAGAUCCUACAUGAGGAUCACCCAUGUUGACCAUGGUUUCCAUGGUCAUUUUGCUCGUCUUGUGUG [jl TITIN mod 2] (Eterna round: R97, puzzle: Sensor, turn-off variant 1) | – | – | – | 31.8 | – | 32.3 |
